One data set addresses CotE (rCotE N281-F712) (Clostridium difficile). As to the kind of experiment: SPR. Conditions: tags: C-terminal His. How it is done:
(§1) For CotE D2, CotE H2 and CotEC chitinase, aptamers were spotted on a gold surface at a concentration of 5 μM in PBS at a volume of approximately 10 nL in triplicate. Negative aptamers of the same length as the positive aptamers were spotted in the same manner, also in triplicate. Protein was then injected over the chip at a volume of 200 μL, with a flow rate of 50 μL/min in a Horiba (OpenPlex) surface plasmon resonance imaging (SPRi) instrument. Resonance due to binding was obtained by subtracting total resonance on the negative sequences from total resonance on the positive sequences. Disassociation values were computed with the following equation: dx/dt˜−kd*x, wherein dx/dt is the derivative of resonance values as a function of time and x is the resonance value for any given time point. Association values were computed with the following equation: dx/dt˜ka*c*Rmax−(ka*c+kd)*x, where x is the resonance due to binding at specific time points, c is the concentration of injectant, and Rmax is the maximum resonance observed.
(§2) For aptamer CdeC D1 (SEQ ID No 6), the KD was not determined due to protein aggregation.

The target in the next data set is CdeM (Clostridium difficile). Briefly: BLI. Conditions: tags: His.
For data set [1], the target named is T1, CotEC chitinase (rCotEC P381-F712) (Clostridium difficile). As to the kind of experiment: BLI. Conditions: tags: C-terminal His.
The target of data set [2] is T1, CotEC chitinase (rCotEC P381-F712). As to the kind of experiment: SPR. Conditions: tags: C-terminal His. How it is done: as §1, §2
Data set [3] deals with T2, CotA (Clostridium difficile, UniProt Q186G8 SEQ:1-305).
T2 sequence: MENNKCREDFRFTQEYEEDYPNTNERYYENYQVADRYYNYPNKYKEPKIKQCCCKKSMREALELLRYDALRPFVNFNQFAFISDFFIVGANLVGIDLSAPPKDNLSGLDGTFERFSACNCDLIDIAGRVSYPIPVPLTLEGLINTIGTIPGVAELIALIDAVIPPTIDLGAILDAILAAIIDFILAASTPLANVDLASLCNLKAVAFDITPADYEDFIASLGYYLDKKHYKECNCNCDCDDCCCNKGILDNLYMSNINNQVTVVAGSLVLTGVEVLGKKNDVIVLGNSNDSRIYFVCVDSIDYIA
As to the kind of experiment: BLI; slower association, little dissociation. The conditions noted are these: tags: His6. How it is done:
The refined pools (characterized in FIGS. 21-25) were taken forwards for monoclonal isolation. All aptamers were purified (after elution) and resuspended and stored in water. Before use in selections or binding assays, aptamers were diluted in a final concentration 1× buffer. Individual aptamer clones were isolated and screened by BLI using aptamer concentrations of 0.5 μM, 1 μM, or 2 μM. Again, the target was immobilized onto a Biolayer Interferometry sensor probe and then incubated with each aptamer clone. The results are presented below (FIGS. 26-30).
On the technique in general: In BLI a coated tip is dipped into the sample, and binding shifts an interference pattern.

Data set [4] addresses T2, CotA. As to the kind of experiment: SPR; CotA immobilized on hydrogel chip by EDC, aptamer injected. The conditions noted are these: tags: His6. The procedure:
For CotA C1, the protein was immobilized on a hydrogel chip with EDC-mediated conjugation between primary amines on the protein (side chains on residues) and carboxylic acid groups on the surface of the chip. A protein of similar size was immobilized in the same manner as a negative control. […] For CdeC D1, the protein was received as aggregated, insoluble balls of protein. The binding assay was performed by incubating fluorescently labeled aptamers (FAM) with the protein, and then spinning the tubes down in a microcentrifuge to remove unbound. The pellet was resuspended in selection buffer and spun down again. Bound aptamers were eluted by adding 6 M urea, and spinning again, retaining the supernatant. The aptamers were cleaned up with PCR cleanup columns and the fluorescence was read on a Tecan Sapphire II fluorometer. Excitation was at 497 nm, and emission was at 515 nm. The amount of fluorescence measured in the eluant was divided by the total amount of fluorescence of all fractions.
as §2
For orientation: Surface plasmon resonance follows binding to a sensor surface in real time, without labels.

B1: CotE_D2 (ssDNA)
DNA: CCAGTGTAGACTACTCAATGCTCGACATTTCCGCCCCGACGGCCCTCCTAGTGATGGGGAGAGTACTATCCACAGGTCAACC
In the case of B1, the Kd in the data set with CotE (rCotE N281-F712) was over 250 nM.

B2: CdeM_E2 (ssDNA)
DNA: CCAGTGTAGACTACTCAATGCCTTCCATTCACCTACCGAGCTAAGCGTTCGACTTAGGTCTGTACTATCCACAGGTCAACC
On to B2, for which, in the data set with CdeM, the binding result is listed as “binds”.

B3: Chitinase_H11 (ssDNA)
DNA: CCAGTGTAGACTACTCAATGCCTTGTAAGAAGAACAATCGCCGCTTCGCCTGAATAGGTTCGTACTATCCACAGGTCAACC
For B3, the binding result in data set [1] is on record as “binds”.

B4: Chitinase_D11 (ssDNA)
DNA: CCAGTGTAGACTACTCAATGCCTGGTAAATCGATGACCGCTGCCTCGCCTGAGTAATCATCGTACTATCCACAGGTCAACC
The molecule B4 registered an equilibrium dissociation constant (Kd) in data set [2] of 254 nM.

B5: Chitinase_D10 (ssDNA)
DNA: CCAGTGTAGACTACTCAATGCCCTATTAGCTGTATCGATCCGTTTAGTCGCTCCTCCGATAGTACTATCCACAGGTCAACC
Consider B5, for which the binding result in data set [1] is given as “binds”.

B6: CotA_B1 (ssDNA)
DNA: CCAGTGTAGACTACTCAATGCTTAAGTTCTGGGGACACGTGATGAACGCATTTAATGGGGCGTACTATCCACAGGTCAACC
B6: the binding result in the data set with CotA [3] was “binds”.

B7: CotA_C1 (ssDNA)
DNA: CCAGTGTAGACTACTCAATGCCGTGGACTGGTCGGGTTTGGATTCGGCAGATGAATCACTAGTACTATCCACAGGTCAACC
As for B7, the affinity with CotA [4], expressed as Kd, was 6.87 nM.

The term Kd denotes the concentration at which binding is half-saturated. Low values mean a tighter complex, high ones a looser complex.

Values taken from patent US20200385730, “Aptamers Against Clostridium Difficile” (Biovector, Inc., published 2020).
